Assay results: EP3620472A1

Key:
[1] = biological target: cynomolgus PAI-1 (cynomolgus (Macaca fascicularis)); assay: crystal structure, heavy chain, average of 2 complexes
[2] = biological target: cynomolgus PAI-1 (cynomolgus (Macaca fascicularis)); assay: crystal structure, light chain, average of 2 complexes
[3] = biological target: recombinant mature human PAI-1 (24-402) stabilized in active conformation (N150H, K154T, Q319L, M354I) (human) (UniProt P05121); assay: crystal structure, heavy chain, average of 4 complexes
[4] = biological target: recombinant mature human PAI-1 (24-402) stabilized in active conformation (N150H, K154T, Q319L, M354I) (human) (UniProt P05121); assay: crystal structure, light chain, average of 4 complexes

B1: Fab A44V11 (Fab, V domains shown)
VH: QMTLKESGPTLVKPTQTLSLTCSVSGDSMTNGYWNWIRQFPGKALEYMGYITYSGSTYYNPSLKGRITITRDTSKNQYYLTLSSVTTVDTATYYCARWHYGSPYYFDYWGQGTTLTVSS
VL: DIKMTQSPSSLSASVGDRVTITCKASQDINSYLSWLQQKPGKSPKTLIYRAQRSVEGVPSRFSGSGSGQDYSLTISSLQPEDLGIYYCLQYDEFPPTFGGGTKLEIK
B1 was tested, and the surface area of the interaction [1] was 703 Å^2, the surface area of the interaction [2] was 360 Å^2 and the surface area of the interaction [3] was 674 Å^2. The surface area of the interaction [4] was 372 Å^2.
